Data taken from patent publication US20200024330A1.

How the values were obtained:
Assay in all cases: cell-based or functional assay
[1] = molecular target: HIV-1 Env of isolate MGRM-D-008 (subtype D), on pseudovirus (HIV-1)
[2] = molecular target: HIV-1 Env of isolate VLGCA1 (pseudovirus) (HIV-1)
[3] = molecular target: HIV-1 Env of isolate 94UG103 (pseudovirus) (HIV-1)
[4] = molecular target: HIV-1 Env of isolate 92WR021 (pseudovirus) (HIV-1)
[5] = molecular target: HIV-1 Env of isolate 92UG037 (pseudovirus) (HIV-1)
[6] = molecular target: HIV-1 Env of isolate MGRM-AE-004 (pseudovirus) (HIV-1)
[7] = molecular target: HIV-1 92BR020 envelope glycoprotein (Env) on pseudovirus (HIV-1)
[8] = molecular target: HIV-1 Env of isolate MGRM-AE-003 (pseudovirus) (HIV-1)
[9] = molecular target: HIV-1 Env of isolate APV_6 (HIV-1)
[10] = molecular target: HIV-1 Env of isolate 92RW009 (clade A), on pseudovirus (HIV-1)
[11] = molecular target: HIV-1 Env of isolate MGRM-Chronic-B-008 (HIV-1)
[12] = molecular target: HIV-1 Env of isolate APV_13 (HIV-1)
[13] = molecular target: HIV-1 Env of isolate MG RM-A-005 (pseudovirus) (HIV-1)
[14] = molecular target: HIV-1 Env of isolate MG RM-A-008 (pseudovirus) (HIV-1)
[15] = molecular target: HIV-1 Env of isolate 92UG046 (subtype D), on pseudovirus (HIV-1)
[16] = molecular target: HIV-1 Env of isolate MGRM-AE-002 (pseudovirus) (HIV-1)
[17] = molecular target: HIV-1 Env of isolate 92UG031 (pseudovirus) (HIV-1)
[18] = molecular target: HIV-1 Env of isolate MGRM-Chronic-B-004 (HIV-1)
[19] = molecular target: HIV-1 Env of isolate 93TH305 (HIV-1)
[20] = molecular target: HIV-1 Env of isolate MG RM-A-013 (pseudovirus) (HIV-1)
[21] = molecular target: HIV-1 Env of isolate JRFL (HIV-1)
[22] = molecular target: HIV-1 92RW020 envelope glycoprotein (Env) on pseudovirus (HIV-1)
[23] = molecular target: HIV-1 Env of isolate 92BR020 (HIV-1)
[24] = molecular target: HIV-1 Env of isolate 98CN006 (subtype CRF08 BC), on pseudovirus (HIV-1)
[25] = molecular target: HIV-1 Env of isolate 92UG114 (subtype D), on pseudovirus (HIV-1)
[26] = molecular target: HIV-1 Env of isolate MGRM-D-003 (subtype D), on pseudovirus (HIV-1)
[27] = molecular target: HIV-1 Env of isolate 92TH021 (pseudovirus) (HIV-1)
[28] = molecular target: HIV-1 Env of isolate 92WR024 (pseudovirus) (HIV-1)
[29] = molecular target: HIV-1 Env of isolate MGRM-Chronic-B-003 (HIV-1)
[30] = molecular target: HIV-1 Env of isolate 94 KE 105 (pseudovirus) (HIV-1)
[31] = molecular target: HIV-1 Env of isolate CAAN.A2 (HIV-1)
[32] = molecular target: HIV-1 Env of isolate 92UG001 (subtype D), on pseudovirus (HIV-1)
[33] = molecular target: HIV-1 Env of isolate MGRM-D-005 (subtype D), on pseudovirus (HIV-1)
[34] = molecular target: HIV-1 Env of isolate MG RM-A-010 (pseudovirus) (HIV-1)
[35] = molecular target: HIV-1 Env of isolate 93WR029 (pseudovirus) (HIV-1)
[36] = molecular target: HIV-1 Env of isolate 92WR026 (pseudovirus) (HIV-1)
[37] = molecular target: HIV-1 Env of isolate MG RM-A-007 (pseudovirus) (HIV-1)
[38] = molecular target: HIV-1 Env of isolate MG RM-A-011 (pseudovirus) (HIV-1)
[39] = molecular target: HIV-1 Env of isolate APV_17 (HIV-1)
[40] = molecular target: HIV-1 Env of isolate MG RM-A-009 (pseudovirus) (HIV-1)
[41] = molecular target: HIV-1 Env of isolate MGRM-D-002 (subtype D), on pseudovirus (HIV-1)
[42] = molecular target: HIV-1 Env of isolate MGRM-AE-005 (pseudovirus) (HIV-1)
[43] = molecular target: HIV-1 Env of isolate MGRM-AE-006 (pseudovirus) (HIV-1)
[44] = molecular target: HIV-1 Env of isolate MGRM-Chronic-B-001 (HIV-1)
[45] = molecular target: HIV-1 Env of isolate 92UG024 (subtype D), on pseudovirus (HIV-1)
[46] = molecular target: HIV-1 Env of isolate CMU02 (pseudovirus) (HIV-1)
[47] = molecular target: HIV-1 Env of isolate 92WR020 (pseudovirus) (HIV-1)
[48] = molecular target: HIV-1 Env of isolate 92RW008 (clade A), on pseudovirus (HIV-1)
[49] = molecular target: HIV-1 Env of isolate 6535.3 (HIV-1)
[50] = molecular target: HIV-1 Env of isolate MGRM-AE-001 (pseudovirus) (HIV-1)
[51] = molecular target: HIV-1 Env of isolate MG RM-A-014 (pseudovirus) (HIV-1)
[52] = molecular target: HIV-1 Env of isolate MGRM-D-001 (subtype D), on pseudovirus (HIV-1)
[53] = molecular target: HIV-1 Env of isolate 92UG005 (subtype D), on pseudovirus (HIV-1)
[54] = molecular target: HIV-1 Env of isolate MGRM-Chronic-B-002 (HIV-1)
[55] = molecular target: HIV-1 Env of isolate MG RM-A-006 (pseudovirus) (HIV-1)
[56] = molecular target: HIV-1 Env of isolate MG RM-A-012 (pseudovirus) (HIV-1)
[57] = molecular target: HIV-1 Env of isolate 98CN009 (subtype CRF07_BC), on pseudovirus (HIV-1)
[58] = molecular target: HIV-1 Env of isolate MGRM-D-004 (subtype D), on pseudovirus (HIV-1)
[59] = molecular target: HIV-1 Env of isolate 93UG077 (pseudovirus) (HIV-1)

Chain of 4970_K22 (PGT-144) (antibody) (VH): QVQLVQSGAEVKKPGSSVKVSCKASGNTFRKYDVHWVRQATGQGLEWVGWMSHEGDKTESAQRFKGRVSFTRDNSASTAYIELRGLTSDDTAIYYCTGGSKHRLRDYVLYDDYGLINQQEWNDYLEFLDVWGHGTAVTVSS
Chain of 4970_K22 (PGT-144) (antibody) (VL): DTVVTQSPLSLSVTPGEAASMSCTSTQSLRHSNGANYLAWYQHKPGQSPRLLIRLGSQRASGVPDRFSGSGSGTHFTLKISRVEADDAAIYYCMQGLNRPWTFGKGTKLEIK
Chain of 4995_P16 (PGT-145) (antibody) (VH): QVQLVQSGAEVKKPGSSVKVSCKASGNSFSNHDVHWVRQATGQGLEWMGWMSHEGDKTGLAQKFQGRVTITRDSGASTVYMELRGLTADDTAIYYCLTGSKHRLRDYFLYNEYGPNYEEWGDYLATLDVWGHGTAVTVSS
Chain of 4995_P16 (PGT-145) (antibody) (VL): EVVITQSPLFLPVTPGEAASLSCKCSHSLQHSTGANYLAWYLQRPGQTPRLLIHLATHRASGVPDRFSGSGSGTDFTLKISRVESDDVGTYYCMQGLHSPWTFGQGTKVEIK

4970_K22 (PGT-144) (antibody)
IC50, pseudovirus neutralization [1]: 9.85 mg/L
IC50 (µg/mL), pseudovirus neutralization [2]: > 50 µg/mL
IC50 (µg/mL), pseudovirus neutralization [3]: > 50 µg/mL
IC50 (µg/mL), pseudovirus neutralization [4]: > 50 µg/mL
IC50 (µg/mL), pseudovirus neutralization [5]: 8.24 µg/mL
IC50 (µg/mL), pseudovirus neutralization [6]: 0.104 µg/mL
IC50 (ug/ml), neutralizing activity [7]: > 10 µg/mL
IC50 (µg/mL), pseudovirus neutralization [8]: > 50 µg/mL
IC50 [9]: > 50 mg/L
IC50, single-round pseudovirus neutralization [10]: 0.893 mg/L
IC50 [11]: > 50 mg/L
IC50 [12]: > 50 mg/L
IC50 (µg/mL), pseudovirus neutralization [13]: 18.6 µg/mL
IC50 (µg/mL), pseudovirus neutralization [14]: > 50 µg/mL
IC50, pseudovirus neutralization [15]: > 50 mg/L
IC50 (µg/mL), pseudovirus neutralization [16]: > 50 µg/mL
IC50 (µg/mL), pseudovirus neutralization [17]: 2.17 µg/mL
IC50 [18]: 9.41 mg/L
IC50 [19]: > 50 mg/L
IC50 (µg/mL), pseudovirus neutralization [20]: > 50 µg/mL
IC50 [21]: > 50 mg/L
IC50 (ug/ml), neutralizing activity [22]: > 10 µg/mL
IC50 [23]: 44 mg/L
IC50, pseudovirus neutralization [24]: > 50 mg/L
IC50, pseudovirus neutralization [25]: > 50 mg/L
IC50, pseudovirus neutralization [26]: > 50 mg/L
IC50 (µg/mL), pseudovirus neutralization [27]: 0.052 µg/mL
IC50 (µg/mL), pseudovirus neutralization [28]: 16.3 µg/mL
IC50 [29]: 7.41 mg/L
IC50 (µg/mL), pseudovirus neutralization [30]: 0.29 µg/mL
IC50 [31]: > 50 mg/L
IC50, pseudovirus neutralization [32]: > 50 mg/L
IC50, pseudovirus neutralization [33]: 14.8 mg/L
IC50 (µg/mL), pseudovirus neutralization [34]: 2.79 µg/mL
IC50 (µg/mL), pseudovirus neutralization [35]: 4.39 µg/mL
IC50 (µg/mL), pseudovirus neutralization [36]: 32.7 µg/mL
IC50 (µg/mL), pseudovirus neutralization [37]: > 50 µg/mL
IC50 (µg/mL), pseudovirus neutralization [38]: > 50 µg/mL
IC50 [39]: 10.3 mg/L
IC50 (µg/mL), pseudovirus neutralization [40]: 2.83 µg/mL
IC50, pseudovirus neutralization [41]: > 50 mg/L
IC50 (µg/mL), pseudovirus neutralization [42]: > 50 µg/mL
IC50 (µg/mL), pseudovirus neutralization [43]: > 50 µg/mL
IC50 [44]: > 50 mg/L
IC50, pseudovirus neutralization [45]: > 50 mg/L
IC50 (µg/mL), pseudovirus neutralization [46]: > 50 µg/mL
IC50 (µg/mL), pseudovirus neutralization [47]: > 50 µg/mL
IC50, single-round pseudovirus neutralization [48]: > 50 mg/L
IC50 [49]: > 50 mg/L
IC50 (µg/mL), pseudovirus neutralization [50]: > 50 µg/mL
IC50 (µg/mL), pseudovirus neutralization [51]: > 50 µg/mL
IC50, pseudovirus neutralization [52]: > 50 mg/L
IC50, pseudovirus neutralization [53]: > 50 mg/L
IC50 [54]: > 50 mg/L
IC50 (µg/mL), pseudovirus neutralization [55]: > 50 µg/mL
IC50 (µg/mL), pseudovirus neutralization [56]: > 50 µg/mL
IC50, pseudovirus neutralization [57]: > 50 mg/L
IC50, pseudovirus neutralization [58]: > 50 mg/L
IC50 (µg/mL), pseudovirus neutralization [59]: > 50 µg/mL

4995_P16 (PGT-145) (antibody)
IC50, pseudovirus neutralization [1]: 0.025 mg/L
IC50 (µg/mL), pseudovirus neutralization [2]: 8.01 µg/mL
IC50 (µg/mL), pseudovirus neutralization [3]: 0.331 µg/mL
IC50 (µg/mL), pseudovirus neutralization [4]: 1.62 µg/mL
IC50 (µg/mL), pseudovirus neutralization [5]: 3.15 µg/mL
IC50 (µg/mL), pseudovirus neutralization [6]: 0.006 µg/mL
IC50 (µg/mL), pseudovirus neutralization [8]: 0.552 µg/mL
IC50 [9]: 0.104 mg/L
IC50, single-round pseudovirus neutralization [10]: 0.026 mg/L
IC50 [11]: 1.9 mg/L
IC50 [12]: 0.337 mg/L
IC50 (µg/mL), pseudovirus neutralization [13]: 0.128 µg/mL
IC50 (µg/mL), pseudovirus neutralization [14]: > 50 µg/mL
IC50, pseudovirus neutralization [15]: > 50 mg/L
IC50 (µg/mL), pseudovirus neutralization [16]: 1.87 µg/mL
IC50 (µg/mL), pseudovirus neutralization [17]: 3.22 µg/mL
IC50 [18]: 0.023 mg/L
IC50 [19]: 0.032 mg/L
IC50 (µg/mL), pseudovirus neutralization [20]: 1.76 µg/mL
IC50 [21]: 30.4 mg/L
IC50 [23]: 1.05 mg/L
IC50, pseudovirus neutralization [24]: > 50 mg/L
IC50, pseudovirus neutralization [25]: 20.1 mg/L
IC50, pseudovirus neutralization [26]: 0.006 mg/L
IC50 (µg/mL), pseudovirus neutralization [27]: 0.013 µg/mL
IC50 (µg/mL), pseudovirus neutralization [28]: 0.069 µg/mL
IC50 [29]: 0.045 mg/L
IC50 (µg/mL), pseudovirus neutralization [30]: 1.32 µg/mL
IC50 [31]: 7.08 mg/L
IC50, pseudovirus neutralization [32]: > 50 mg/L
IC50, pseudovirus neutralization [33]: 10.4 mg/L
IC50 (µg/mL), pseudovirus neutralization [34]: 0.028 µg/mL
IC50 (µg/mL), pseudovirus neutralization [35]: > 50 µg/mL
IC50 (µg/mL), pseudovirus neutralization [36]: 1.45 µg/mL
IC50 (µg/mL), pseudovirus neutralization [37]: > 50 µg/mL
IC50 (µg/mL), pseudovirus neutralization [38]: 0.484 µg/mL
IC50 [39]: 0.488 mg/L
IC50 (µg/mL), pseudovirus neutralization [40]: 0.235 µg/mL
IC50, pseudovirus neutralization [41]: > 50 mg/L
IC50 (µg/mL), pseudovirus neutralization [42]: 0.967 µg/mL
IC50 (µg/mL), pseudovirus neutralization [43]: > 50 µg/mL
IC50 [44]: 3.22 mg/L
IC50, pseudovirus neutralization [45]: 1.6 mg/L
IC50 (µg/mL), pseudovirus neutralization [46]: 1.43 µg/mL
IC50 (µg/mL), pseudovirus neutralization [47]: 0.997 µg/mL
IC50, single-round pseudovirus neutralization [48]: 0.4 mg/L
IC50 [49]: > 50 mg/L
IC50 (µg/mL), pseudovirus neutralization [50]: 20.9 µg/mL
IC50 (µg/mL), pseudovirus neutralization [51]: 1.36 µg/mL
IC50, pseudovirus neutralization [52]: 0.56 mg/L
IC50, pseudovirus neutralization [53]: > 50 mg/L
IC50 [54]: 3.67 mg/L
IC50 (µg/mL), pseudovirus neutralization [55]: > 50 µg/mL
IC50 (µg/mL), pseudovirus neutralization [56]: 0.23 µg/mL
IC50, pseudovirus neutralization [57]: 0.136 mg/L
IC50, pseudovirus neutralization [58]: 10.9 mg/L
IC50 (µg/mL), pseudovirus neutralization [59]: > 50 µg/mL
